Measured values reported in the supplement of paper PMC9170038.

System: K4 kissing-loop RNA reporter
Experiment: apparent KD of K4 kissing-loop reporter; higher = weaker reporter binding
Settings: Eterna round: R107
Description: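 RNA-MaP round R107: designed RNA switches with theophylline, tryptophan, arginine or FMN aptamers are transcribed on-chip within common flanks. They are titrated with a labelled K4 kissing-loop RNA reporter in RNA-MaP buffer (100 mM Tris pH 7.5, 80 mM KCl, 4 mM MgCl2), without ligand or with the indicated ligand. Median apparent KD per design.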

[1] = input ligand: theophylline 20 uM
[2] = input ligand: tryptophan 2.4 mM
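Note: bound reporter read as fluorescence of individual clusters on recovered sequencing chips by microscopy, with normalized cluster intensities fitted with a binding model.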

Row | Sequence | apparent KD of K4 kissing-loop reporter (input ligand: FMN 200 uM) | apparent KD of K4 kissing-loop reporter (input ligand: arginine 13.2 mM) | apparent KD of K4 kissing-loop reporter (input ligand: none) | apparent KD of K4 kissing-loop reporter [1] | apparent KD of K4 kissing-loop reporter [2]
1 | AUUUUCAAUUUAUUAUAUAACUUUUCAGAAGGAGCGUGGAAGUUCACAGGUAGGUCGCUGAAUAUAGGACUAGUGAUGUUAGUUA [JR_Nu_SSArginiA_Sub023] | 284 nM | 247 nM | 279 nM | 268 nM | 258 nM
2 | AUUUUGAGUGAUGUUCAUAUCUAUUCUGAAGGAGCGCUAAAUAAGGCAGGUAGGUCGCGGAAUAUAUAUAUAUAUAUAUAUAUAU [KL-SSArg-A30] | 538 nM | 809 nM | 711 nM | 624 nM | 537 nM
3 | AUUUUGGUUUAGAGUGAUGUUCCUUGUAUUCGAGGACCGGUACGGCCGCCACUCGAAUAGAAAAGAAAAGAAAUGAGUGAUGUUU [BDazzled - #4 SS Tryptophan A] | 519 nM | 267 nM | 362 nM | 357 nM | 356 nM
4 | AUUUUUUUGUCAGGAUAUUAGUAUGCAUUUAGUUUGUUAGUGAUGUUGAUAUUUUGUUUAUGUAUUUAAGAAGGGAUUUAGCGGU [iiikmullin] | 384 nM | 217 nM | 335 nM | 340 nM | 306 nM
5 | CAACAGCUUACGGCCGCCACUCCUUUAUAUGGUGCGCACCGUUGAGCUCUAGUGAUGUUGGUGCCGAGGACCGGGUAGGAAAGUA [theeternabot_sameState_KL_Trp_B_31] | 468 nM | 245 nM | 331 nM | 448 nM | 412 nM
6 | CACCUAGGUACGGCCGCCACUAGAAGUGAUGUUUCGUCUGGUUCCGCAUUACGUGUACUUUCUUAUAGGACCGGGUAGCAAAUAG [theeternabot_exclusion_KL_Trp_B_3] | 548 nM | 288 nM | 563 nM | 258 nM | 311 nM
7 | CACCUGCCAUAAGGAUAUUCGUCUUUGCGCUUCCAGUGAUGUUGGAGAUCGCAACACAUGGUCAUAGAAGAAGGUAUGGUAUUAA [theeternabot_sameState_KL_FMN_B_35] | 154 nM | 186 nM | 195 nM | 191 nM | 186 nM
8 | CACUUACGUAGUGAUGUUACGAUCUCUGAUACCAGACAACUCUAAGUCCCUUGGCAGCAGUCAUUUUGCUUAUAAUUUACUCAAA [JR_ExcTheophyA_Sub015] | 657 nM | 556 nM | 786 nM | 646 nM | 508 nM
9 | CAUACGCAUGGAGGAUAUGAGAUUUCUCAUAUUAUUGCUUAUUCUCAGUGAUGUUGGGAUUUAAGCUCAGAAGGCCAUGUGUAUG [Ex FMN B 10] | 187 nM | 88.4 nM | 98 nM | 94.2 nM | 85.8 nM
10 | CAUAGACAAGUGAUGUUUGUCAUAACCGAAGGAGCGUCUUUAAAGACAGGUAGGUCGCGGAUUAAUUAAGUUAUGAUUCUUUUUA [JR_SSArginiA_Sub017] | 630 nM | 572 nM | 661 nM | 642 nM | 531 nM
11 | CAUAGGAAACUAUGUUUCUCUCUUACUGAAGGAGCGCGUGAAAACGCAGGUAGGUCGCAGAUUUUGAGAGUGAUGUUCUCAAUAA [Ex Arginine A K4 18] | 128 nM | 167 nM | 139 nM | 155 nM | 91.7 nM
12 | CAUAGUCACUGUGAUACCAGCCCGACUCUUGGCGUCUGCGGUCAAAGCCCAGUGAUGUUGGGCCCUUGGCAGCAUGGCGGCAACA [Xelexebi] | 136 nM | 114 nM | 132 nM | 112 nM | 120 nM
13 | CAUUCAGUGAUGUUGGAAGGCGAGCGGGAUACCAGCGGAGACUCACGCCCUUGGCAGCCCAUAUAUCCCAGGUAGAUAAUAGUUC [Same State - Theophylline A (Freestyle 5)] | 276 nM | 117 nM | 217 nM | 219 nM | 201 nM
14 | CCAAACAGUUACGAUACCAGUCUAAUAUAUUUGAUCAAAACCCUCGCCGAGUGAUGUUCGGACCCUUGGCAGCGUCUGGGACAGG [zzbtmullin] | 479 nM | 378 nM | 500 nM | 414 nM | 371 nM
15 | CCAACAACGAGUGAUGUUCGUUGAUCAGAAGGAGCGUCAAUAAUGACAGGUAGGUCGCUGAUAAUUGGAAAUAGGGCAAUAGCUU [Same State Arginine A GF12] | 110 nM | 113 nM | 115 nM | 120 nM | 105 nM
16 | CCAGUGAUAAACGAUACCAGAAAUACCUUAUUUGGCCGGCGGAGUGAUGUUCCUAAUACUUUCCCUUGGCAGCGUCGAAUGCUAG [theeternabot_sameState_KL_Theo_B_16] | 43.8 nM | 61.1 nM | 46 nM | 99 nM | 42.3 nM
17 | CCAUCGCUAUUCGAUACCAGCUACUUAGUGAUGUUAAGUUAAAAUCAAUUGUAGAUUGAAAGCCCUUGGCAGCGAAUAGUGAUGG [Theophylline B K4 21] | 157 nM | 123 nM | 139 nM | 83.8 nM | 135 nM
18 | CCAUCGCUAUUCGAUACCAGCUCCUUAGUGAUGUUAAGGUUUUACCCACUGUAGGUGGGAAGCCCUUGGCAGCGAAUAGUGAUGG [Theophylline B K4 28] | 982 nM | 872 nM | 1150 nM | 538 nM | 1030 nM
19 | CCAUCGCUAUUCGAUACCAGUCAAAAUAAAAUAAUAAAUCUGCAAAGGAGUGAUGUUCCAGACCCUUGGCAGCGAAUAGUGAUGG [Theophylline B K4 2] | 746 nM | 552 nM | 834 nM | 709 nM | 723 nM
20 | CCAUCGCUAUUCGAUACCAGUCAUCAAAUCUUUGGUUUGAUAAAGGAGUGAUGUUCCCAAGACCCUUGGCAGCGAAUAGUGAUGG [Theophylline B K4 10] | 252 nM | 212 nM | 224 nM | 175 nM | 230 nM
21 | CCAUUCUUUUACGAUACCAGUUUUAUUUAGUUAUUCAUAACCCUUGCCGAGUGAUGUUCGGACCCUUGGCAGCGUUUGCGAGAGG [zaadvmullin] | 286 nM | 299 nM | 355 nM | 411 nM | 272 nM

Row | Sequence | apparent KD of K4 kissing-loop reporter (input ligand: FMN 200 uM) | apparent KD of K4 kissing-loop reporter (input ligand: arginine 13.2 mM) | apparent KD of K4 kissing-loop reporter (input ligand: none) | apparent KD of K4 kissing-loop reporter [1] | apparent KD of K4 kissing-loop reporter [2]
22 | CCGACUGCAGGAAGGAGCGGCGGUUGGAGUGAUGUUCCAGGUAGUGAUGUUACCAAGAUCCGCCAGGUAGGUCGCCUGUUGCUCA [Same State Arginie B GF 12] | 156 nM | 106 nM | 115 nM | 148 nM | 125 nM
23 | CCGCCAUCGUCAGAUACCAGGCUGAUGGCGGUAACCGCCAAGCGAGUGAUGUUCGCAUCAGUCCCUUGGCAGCUGACGAAGACUG [#16 K4 Theophylline B Same State] | 176 nM | 86.9 nM | 190 nM | 283 nM | 133 nM
24 | CCGGGCGGCUGAAGGAGCGGGCGGGCCCGAGUGAUGUUCGGGUGGACCGUGAGGUCCGGUGCCCAGGUAGGUCGCGGUUCCGCCC [#2 Same State - Arginine B Attempt #8 (HarryS)] | 247 nM | 183 nM | 162 nM | 296 nM | 238 nM
25 | CCGUCGACAAGCGCCAUCGUCUACGUCAAUAAGGAUAUCAUCAAGGUGAGAAGGUAUGACAACCGGAGUGAUGUUCCAGGGCGAA [theeternabot_sameState_KL_FMN_A_5] | 506 nM | 362 nM | 368 nM | 304 nM | 346 nM
26 | CCUAUCUCAUACGAUACCAGUCCGAGUGAUGUUCGAACAGGUUUUAGUUUGCCAUAUAAUGACCCUUGGCAGCGUAUGGGAUAGG [Ex Theophylline B K4 13] | 167 nM | 123 nM | 163 nM | 130 nM | 137 nM
27 | CCUGCAGCUGUUACCGAGGGAUGCUACGGACGAGGACCGGUACGGCCGCCACUCGCCAGUGAUGUUGGUGAGGGAGGACGUUACU [KL-XTryp-A21] | 137 nM | 107 nM | 109 nM | 103 nM | 107 nM
28 | CCUGUGUGUGAAGGAUAUAUUUCGCAUUAAAACUAGUGAUGUUGGUAAAUGGCACAAUCCGUAGCAAUAGAAGGUCACUCCGGAA [theeternabot_sameState_KL_FMN_B_22] | 499 nM | 445 nM | 793 nM | 498 nM | 524 nM
29 | CCUUCCUAAAACGAUACCAGUUUCUAUCCUCAAUCCAGUGAUGUUGAAUUGAGCUCACAGAACCCUUGGCAGCGUCGCUAUACGG [theeternabot_sameState_KL_Theo_B_39] | 214 nM | 202 nM | 195 nM | 180 nM | 190 nM
30 | CCUUCUCUUGAUAGUGAUGUUAUCAAGGGCAAGGAUAUCAUCUUAAUGAGAAGGUGUCCUUGAUAACAUGGAGGUCUGAAACAGA [Omei KL FMN A Exc C v5] | 108 nM | 186 nM | 229 nM | 321 nM | 335 nM
31 | CGACACUCAGCGGCCGCCACUGAGCUAUAUUUUGCAGGUGCCCGAGUAAGUGAUGUUUACUUCGUCAGGACCGGGCUGGUUUCAA [theeternabot_sameState_KL_Trp_B_20] | 514 nM | 298 nM | 609 nM | 294 nM | 351 nM
32 | CGAGUGAUGUUCGAAGAGUUGUUAAGCGAUACCAGCUAGGAAACUGGCCCUUGGCAGCGUAAUAAGUAAAUAAAUAAAUGAUCAC [whbob_Ex_Theo_A_th63] | 287 nM | 399 nM | 442 nM | 486 nM | 337 nM
33 | CGAGUGAUGUUCGAAGAGUUGUUAAGCGAUACCAGCUAGGAGACUGGCCCUUGGCAGCGUAAUAAGUUAAUAAAUAAAUGAUCAC [whbob_Ex_Theo_A_th65] | 293 nM | 384 nM | 360 nM | 506 nM | 285 nM
34 | CGAGUGAUGUUCGUUCGUUUAUUUCUUUGACAGGAUAUGCGGAAACGCAGAAGGGUCACCUUUGAGUUAAAGGAAUUUACGUUAU [Ex FMN A 26] | 572 nM | 509 nM | 599 nM | 539 nM | 483 nM
35 | CGAGUGAUGUUCGUUUUAAAAUUUUUUUGACAGGAUAUGCGGAAACGCAGAAGGGUCACCUUUGAGUUAAAAGAAAUUAAAUUUU [Ex FMN 16] | 175 nM | 223 nM | 198 nM | 224 nM | 166 nM
36 | CGAUGGAUGGCAGGAUAUAGACAUUGAGUGAUGUUCGAUGAUUAUCCAUAUUCCCGUCACCUAUGACUAGAAGGGCCAUCCAUCG | 236 nM | 485 nM | 464 nM | 587 nM | 577 nM
37 | CGCAAAUCGUCGGCCGCCACUGCAUUUGAACGCUAAUUGUCUCUGCGCGGAGUGAUGUUCUGUGCCAGGACCGGGACGGAUUUCG [theeternabot_exclusion_KL_Trp_B_21] | 446 nM | 381 nM | 517 nM | 499 nM | 146 nM
38 | CGCAAGCAGCCAGUGAUGUUGGCCGCCUUGCGAGGACCGGUACGGCCGCCACUCGAAGGCGGCUACUGGUAAUCCGUCUAACGGA [Lareus] | 84.6 nM | 80.9 nM | 86.8 nM | 68.4 nM | 89.9 nM
39 | CGCAGUGAUGUUGCGAGUAACUACAGGGAAGGAGCGUGCUAAAGCACAGGUAGGUCGCCCAUGCAGUGAUGUUGUGUAAAAGGGU [Excluson Arginine A GF 13] | 102 nM | 98.6 nM | 106 nM | 118 nM | 90.8 nM
40 | CGCAGUGAUGUUGCGAGUAGCUACAGGGAAGGAGCGCUCUAGUGAGCAGGUAGGUCGCCCACGCAGUGAUGUUGCGUCAUAGGGU [Exclusion Arg A GF9] | 116 nM | 110 nM | 113 nM | 113 nM | 101 nM
41 | CGCAGUGAUGUUGCGAGUAGCUACAGGGAAGGAGCGUGCUAGAGCACAGGUAGGUCGCCCAGUGGCAGUGAUGUUGCCAACGGGU [Exclusion ARginine A GF 18] | 132 nM | 110 nM | 110 nM | 104 nM | 109 nM
42 | CGCGCGCGCGCGCGCGCGCGCGAAAAUGAUACCAGUAUAUAAGAAUACCCUUGGCAGCAUAAGAAAGAUAUAGUGAUGUUGUAUA [SSTheophA.A] | 212 nM | 76.5 nM | 279 nM | 316 nM | 161 nM
